Assay results from patent publication US20060024667A1 (PRIMEX CLINICAL LABORATORIES, published 2006).
Positions of bridges follow the written chain, without caps; N, C: chain ends. No end group written: not given here.

B1: scrambled cyclic peptide ScrC44 (peptide)
peptide: CADWRYRSVFGPVSVAC
modifications: disulfide 1-17 (inferred); not fully specified
notes: Negative control; also called Scr44; cyclic peptide with scrambled amino acids
B2: HCDR3-derived synthetic peptide N44 (peptide)
peptide: ASVRGWYVRSVFDPA
notes: HCDR3 of clone b4.4 with an alanine at each end, without cysteines; linear; also called linear N44; linear peptide N44

Target: T1, biotinylated Aβ42 (human, UniProt P05067 672-713, biotinylated (site not stated))
T1 construct: domain: amyloid-beta peptide (Aβ42); Added in solution (PBS/1% BSA) to plates coated with the HCDR3-derived peptides; detected with avidin-peroxidase; also called Aβ42 (biotinylated)
Assay: ELISA, peptide coated at 10 µg/ml, biotinylated Aβ42 in solution

T1 sequence (P05067 672-713 limits assumed): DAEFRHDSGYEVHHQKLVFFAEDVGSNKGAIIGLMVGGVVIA

Binder | binding result
IWGCSGKLICTTAVP (bridge 4-10 (inferred); also: cyclic via two Cys, bond not described, Negative control) [non-related cyclic peptide GM15] | no binding
B1 | no binding
B2 | no binding
